Data reported in the supplement of paper PMC10899765.

Experiments:
Conditions in all cases: 20 nM; 72 h
[1] = test system: MCF10A; assay: one-nucleolus phenotype percent effect (relative to siNT 0% and siNOL11 100%); higher = more cells with one nucleolus (ribosome biogenesis inhibition)
Procedure: (§1)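 After 72 h, cells were fixed and stained with Hoechst and anti-fibrillarin, and nucleoli per nucleus were counted with CellProfiler. Values are plate-adjusted percent effect for the one-nucleolus and 5+ nucleoli phenotypes, normalised to siNT (0%) and to the positive controls siNOL11 or siKIF11 (100%), as the mean of biological triplicates. Percent viability is the nuclei count relative to siNT.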

[2] = test system: MCF10A; assay: 5+ nucleoli phenotype percent effect (relative to siNT 0% and siKIF11 100%); higher = more cells with five or more nucleoli
Procedure: as §1

[3] = test system: MCF10A; assay: percent viability (nuclei count relative to siNT); higher = more viable cells
Procedure: as §1

CACUGUUUCCUUUCUGAGUGGA [hsa-miR-892c-3p]
one-nucleolus phenotype percent effect [1]: 1.69%
5+ nucleoli phenotype percent effect [2]: -29.1%
percent viability [3]: 93.2%

CACUUAGCAGGUUGUAUUAUAU [hsa-miR-374c-3p]
one-nucleolus phenotype percent effect [1]: 0.51%
5+ nucleoli phenotype percent effect [2]: 0.0114%
percent viability [3]: 50.7%

CAGAACAGGAGCAUAGAAAGGC [hsa-miR-4773]
one-nucleolus phenotype percent effect [1]: -20.2%
5+ nucleoli phenotype percent effect [2]: 22.9%
percent viability [3]: 43.7%

CAGAAGGGGAGUUGGGAGCAGA [hsa-miR-3154]
one-nucleolus phenotype percent effect [1]: 46.1%
5+ nucleoli phenotype percent effect [2]: -26.4%
percent viability [3]: 17.4%

CAGAGAAUUGUUUAAUC [hsa-miR-3123]
one-nucleolus phenotype percent effect [1]: -40.8%
5+ nucleoli phenotype percent effect [2]: 54.9%
percent viability [3]: 124%

CAGAGGGAAUACAGAGGGCAAU [hsa-miR-6873-5p]
one-nucleolus phenotype percent effect [1]: 20%
5+ nucleoli phenotype percent effect [2]: 7.98%
percent viability [3]: 36.7%

CAGAGUGACAAGCUGGUUAAAG [hsa-miR-5586-3p]
one-nucleolus phenotype percent effect [1]: -14.6%
5+ nucleoli phenotype percent effect [2]: 27.8%
percent viability [3]: 98.4%

CAGAUCAUGGGACUGUCUCAG [hsa-miR-5694]
one-nucleolus phenotype percent effect [1]: -16.1%
5+ nucleoli phenotype percent effect [2]: 22.8%
percent viability [3]: 66.3%

CAGCACCCUGUGGCUCCCACAG [hsa-miR-6871-3p]
one-nucleolus phenotype percent effect [1]: -5.35%
5+ nucleoli phenotype percent effect [2]: 26.8%
percent viability [3]: 50.1%

CAGCAGCAAUUCAUGUUUUGAA [hsa-miR-424-5p]
one-nucleolus phenotype percent effect [1]: 24%
5+ nucleoli phenotype percent effect [2]: -8.58%
percent viability [3]: 77.3%

CAGCAGCACACUGUGGUUUGU [hsa-miR-497-5p]
one-nucleolus phenotype percent effect [1]: 50.2%
5+ nucleoli phenotype percent effect [2]: -38.4%
percent viability [3]: 15.2%

CAGCAGGAGGUGAGGGGAG [hsa-miR-6165]
one-nucleolus phenotype percent effect [1]: -18.4%
5+ nucleoli phenotype percent effect [2]: 36.7%
percent viability [3]: 101%

CAGCAGGGGAGAGAGAGGAGUC [hsa-miR-6510-5p]
one-nucleolus phenotype percent effect [1]: 20.8%
5+ nucleoli phenotype percent effect [2]: -10.7%
percent viability [3]: 27.9%

CAGCAGUCCCUCCCCCUG [hsa-miR-4274]
one-nucleolus phenotype percent effect [1]: 6.47%
5+ nucleoli phenotype percent effect [2]: 7.99%
percent viability [3]: 34.1%

CAGCAGUGCGCAGGGCUG [hsa-miR-4519]
one-nucleolus phenotype percent effect [1]: 8.95%
5+ nucleoli phenotype percent effect [2]: 8.89%
percent viability [3]: 27.2%

CAGCCACAACUACCCUGCCACU [hsa-miR-449b-3p]
one-nucleolus phenotype percent effect [1]: -5.19%
5+ nucleoli phenotype percent effect [2]: 1.67%
percent viability [3]: 71.9%

CAGCCAGCCCCUGCUCACCCCU [hsa-miR-6858-3p]
one-nucleolus phenotype percent effect [1]: 16.5%
5+ nucleoli phenotype percent effect [2]: 3.04%
percent viability [3]: 30.6%

CAGCCCCACAGCCUCAGA [hsa-miR-4323]
one-nucleolus phenotype percent effect [1]: 2.83%
5+ nucleoli phenotype percent effect [2]: -13.4%
percent viability [3]: 39.3%

CAGCCCGGAUCCCAGCCCACUU [hsa-miR-3940-3p]
one-nucleolus phenotype percent effect [1]: 2.08%
5+ nucleoli phenotype percent effect [2]: -8.21%
percent viability [3]: 33.5%

CAGCCCUCCUCCCGCACCCAAA [hsa-miR-4687-5p]
one-nucleolus phenotype percent effect [1]: -10.4%
5+ nucleoli phenotype percent effect [2]: -6.45%
percent viability [3]: 80.6%

CAGCCGCCGCCUGUCUCCACAG [hsa-miR-6746-3p]
one-nucleolus phenotype percent effect [1]: -1.13%
5+ nucleoli phenotype percent effect [2]: 7.39%
percent viability [3]: 36.2%

CAGCCUGACAGGAACAG [hsa-miR-4293]
one-nucleolus phenotype percent effect [1]: -6.3%
5+ nucleoli phenotype percent effect [2]: 4.42%
percent viability [3]: 33.8%

CAGCGGAGCCUGGAGAGAAGG [hsa-miR-7846-3p]
one-nucleolus phenotype percent effect [1]: 11.9%
5+ nucleoli phenotype percent effect [2]: -18.4%
percent viability [3]: 41.6%

CAGGAAGGAGACAGGCAGUUCA [hsa-miR-6876-5p]
one-nucleolus phenotype percent effect [1]: 10.4%
5+ nucleoli phenotype percent effect [2]: -24.5%
percent viability [3]: 21.8%

CAGGAAGGAUUUAGGGACAGGC [hsa-miR-4476]
one-nucleolus phenotype percent effect [1]: 14%
5+ nucleoli phenotype percent effect [2]: -8.98%
percent viability [3]: 23.3%

CAGGACUUGACGGCUGCAACU [hsa-miR-8083]
one-nucleolus phenotype percent effect [1]: -1.33%
5+ nucleoli phenotype percent effect [2]: 22.5%
percent viability [3]: 71%

CAGGAGGCAGUGGGCGAGCAGG [hsa-miR-4695-5p]
one-nucleolus phenotype percent effect [1]: -5.49%
5+ nucleoli phenotype percent effect [2]: 14.2%
percent viability [3]: 54.7%

CAGGAGUGGGGGGUGGGACGU [hsa-miR-4433b-3p]
one-nucleolus phenotype percent effect [1]: -5.4%
5+ nucleoli phenotype percent effect [2]: 3.45%
percent viability [3]: 65.1%

CAGGAUCCACAGAGCUAGUCCA [hsa-miR-4661-3p]
one-nucleolus phenotype percent effect [1]: 7.03%
5+ nucleoli phenotype percent effect [2]: -16%
percent viability [3]: 31.4%

CAGGAUGUGGUCAAGUGUUGUU [hsa-miR-1265]
one-nucleolus phenotype percent effect [1]: -25.1%
5+ nucleoli phenotype percent effect [2]: 67.6%
percent viability [3]: 123%

CAGGCACGGGAGCUCAGGUGAG [hsa-miR-3622a-5p]
one-nucleolus phenotype percent effect [1]: 42.3%
5+ nucleoli phenotype percent effect [2]: -21.7%
percent viability [3]: 27.1%

CAGGCAGAAGUGGGGCUGACAGG [hsa-miR-6511a-5p]
one-nucleolus phenotype percent effect [1]: 6.88%
5+ nucleoli phenotype percent effect [2]: 3.66%
percent viability [3]: 69.3%

CAGGCAGGGAGGUGGGACCAUG [hsa-miR-6808-5p]
one-nucleolus phenotype percent effect [1]: 28.6%
5+ nucleoli phenotype percent effect [2]: -14.6%
percent viability [3]: 21.7%

CAGGCAGGUGUAGGGUGGAGC [hsa-miR-6893-5p]
one-nucleolus phenotype percent effect [1]: -3.82%
5+ nucleoli phenotype percent effect [2]: -6.16%
percent viability [3]: 31.2%

CAGGCAGUGACUGUUCAGACGUC [hsa-miR-2682-5p]
one-nucleolus phenotype percent effect [1]: 51.4%
5+ nucleoli phenotype percent effect [2]: -23.5%
percent viability [3]: 12.3%

CAGGCCAUAUUGUGCUGCCUCA [hsa-miR-15a-3p]
one-nucleolus phenotype percent effect [1]: 23%
5+ nucleoli phenotype percent effect [2]: -27.1%
percent viability [3]: 29.6%

CAGGCGUCUGUCUACGUGGCUU [hsa-miR-3186-5p]
one-nucleolus phenotype percent effect [1]: 27.8%
5+ nucleoli phenotype percent effect [2]: -8.59%
percent viability [3]: 23.1%

CAGGGAAAUGGGAAGAACUAGA [hsa-miR-5584-5p]
one-nucleolus phenotype percent effect [1]: -19.1%
5+ nucleoli phenotype percent effect [2]: 34.8%
percent viability [3]: 53.3%

CAGGGAACAGCUGGGUGAGCUGCU [hsa-miR-6750-5p]
one-nucleolus phenotype percent effect [1]: -6.66%
5+ nucleoli phenotype percent effect [2]: 27.2%
percent viability [3]: 60.6%

CAGGGAACCAGUUGGGGCUU [hsa-miR-6822-5p]
one-nucleolus phenotype percent effect [1]: 20.9%
5+ nucleoli phenotype percent effect [2]: -8.39%
percent viability [3]: 20.6%

CAGGGAGAAGGUGGAAGUGCAGA [hsa-miR-6760-5p]
one-nucleolus phenotype percent effect [1]: -0.928%
5+ nucleoli phenotype percent effect [2]: 29.9%
percent viability [3]: 24.8%

CAGGGAGGCGCUCACUCUCUGCU [hsa-miR-4756-5p]
one-nucleolus phenotype percent effect [1]: -3.87%
5+ nucleoli phenotype percent effect [2]: 41%
percent viability [3]: 158%

CAGGGAGGUGAAUGUGAU [hsa-miR-1321]
one-nucleolus phenotype percent effect [1]: 19.8%
5+ nucleoli phenotype percent effect [2]: 6.81%
percent viability [3]: 20.2%

CAGGGCAGAGGGCACAGGAAUCUGA [hsa-miR-6735-5p]
one-nucleolus phenotype percent effect [1]: 11.3%
5+ nucleoli phenotype percent effect [2]: -26.5%
percent viability [3]: 31.9%

CAGGGCAGGAAGAAGUGGACAA [hsa-miR-4436b-3p]
one-nucleolus phenotype percent effect [1]: 31.7%
5+ nucleoli phenotype percent effect [2]: -7.65%
percent viability [3]: 20.5%

CAGGGCAGGGAAGGUGGGAGAG [hsa-miR-6879-5p]
one-nucleolus phenotype percent effect [1]: -11.1%
5+ nucleoli phenotype percent effect [2]: 36.6%
percent viability [3]: 67.3%

CAGGGCCAGGCACAGAGUAAG [hsa-miR-6895-5p]
one-nucleolus phenotype percent effect [1]: 13.8%
5+ nucleoli phenotype percent effect [2]: 0.712%
percent viability [3]: 41.8%

CAGGGCCCUGGCUUUAGCAGA [hsa-miR-7160-3p]
one-nucleolus phenotype percent effect [1]: 14.8%
5+ nucleoli phenotype percent effect [2]: -4.58%
percent viability [3]: 41.3%

CAGGGCCUCACUGUAUCGCCCA [hsa-miR-4512]
one-nucleolus phenotype percent effect [1]: 18.5%
5+ nucleoli phenotype percent effect [2]: 0.0146%
percent viability [3]: 20%

CAGGGCUCAGGGAUUGGAUGGAG [hsa-miR-5088]
one-nucleolus phenotype percent effect [1]: -7.65%
5+ nucleoli phenotype percent effect [2]: 20.4%
percent viability [3]: 77.7%

CAGGGCUCAGGGAUUGGAUGGAGG [hsa-miR-5088-5p]
one-nucleolus phenotype percent effect [1]: -17.9%
5+ nucleoli phenotype percent effect [2]: 15.2%
percent viability [3]: 86.9%

CAGGGCUGGCAGUGACAUGGGU [hsa-miR-4446-3p]
one-nucleolus phenotype percent effect [1]: 1.33%
5+ nucleoli phenotype percent effect [2]: -5.74%
percent viability [3]: 25.9%

CAGGGGCUGGGGUUUCAGGUUCU [hsa-miR-6813-5p]
one-nucleolus phenotype percent effect [1]: -4.41%
5+ nucleoli phenotype percent effect [2]: -16.1%
percent viability [3]: 23.1%

CAGGGGGACUGGGGGUGAGC [hsa-miR-6794-5p]
one-nucleolus phenotype percent effect [1]: 5.76%
5+ nucleoli phenotype percent effect [2]: 7.3%
percent viability [3]: 50.1%

CAGGGUCAGCUGAGCAUG [hsa-miR-1178-5p]
one-nucleolus phenotype percent effect [1]: 9.85%
5+ nucleoli phenotype percent effect [2]: 8.34%
percent viability [3]: 51.5%

CAGGUAGAUAUUUGAUAGGCAU [hsa-miR-3927-3p]
one-nucleolus phenotype percent effect [1]: -16.5%
5+ nucleoli phenotype percent effect [2]: 29.3%
percent viability [3]: 24.8%

CAGGUCACGUCUCUGCAGUUAC [hsa-miR-370-5p]
one-nucleolus phenotype percent effect [1]: -14.6%
5+ nucleoli phenotype percent effect [2]: 5.92%
percent viability [3]: 54.3%

CAGUAACAAAGAUUCAUCCUUGU [hsa-miR-802]
one-nucleolus phenotype percent effect [1]: -6.9%
5+ nucleoli phenotype percent effect [2]: -6.89%
percent viability [3]: 81.8%

CAGUGAUCGUCUCUGCUGGC [hsa-miR-8079]
one-nucleolus phenotype percent effect [1]: 6.32%
5+ nucleoli phenotype percent effect [2]: -35%
percent viability [3]: 41.6%
